The assay has as its target T1, endogenous 14-3-3 (all isoforms included), P27348.
T1 chain: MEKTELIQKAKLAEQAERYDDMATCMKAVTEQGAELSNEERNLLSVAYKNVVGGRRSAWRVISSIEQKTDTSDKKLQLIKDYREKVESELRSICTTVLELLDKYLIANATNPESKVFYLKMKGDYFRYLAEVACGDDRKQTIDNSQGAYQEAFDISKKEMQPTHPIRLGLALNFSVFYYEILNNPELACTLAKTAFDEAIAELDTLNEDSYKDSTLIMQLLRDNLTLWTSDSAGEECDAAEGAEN
Put plainly: coimmunoprecipitation (quantified western blot). The following applies: chain shown with the change; serum-starved cells; parent: est. 1.0; read off a plot. For orientation: Immunoblotting shows a protein as a band on a membrane.

Ratio to parent data for 5 molecules are collected here from article PMC6351565.

B1: IRSp53-FLAG (wild type), natively phosphorylated, Q9UQB8-4 T340A; T360A (protein)
chain: MSLSRSEEMHRLTENVYKTIMEQFNPSLRNFIAMGKNYEKALAGVTYAAKGYFDALVKMGELASESQGSKELGDVLFQMAEVHRQIQNQLEEMLKSFHNELLTQLEQKVELDSRYLSAALKKYQTEQRSKGDALDKCQAELKKLRKKSQGSKNPQKYSDKELQYIDAISNKQGELENYVSDGYKTALTEERRRFCFLVEKQCAVAKNSAAYHSKGKELLAQKLPLWQQACADPSKIPERAVQLMQQVASNGATLPSALSASKSNLVISDPIPGAKPLPVPPELAPFVGRMSAQESTPIMNGVTGPDGEDYSPWADRKAAQPKSLSPPQSQSKLSDSYSNALPVRKSVTPKNSYATTENKALPRSSSMAAGLERNGRMRVKAIFSHAAGDNSTLLSFKEGDLITLLVPEARDGWHYGESEKTKMRGWFPFSYTRVLDSDGSDRLHMSLQQGKSSSTGNLLDKDDLAIPPPDYGAASRAFPAQTASGFKQRPYSVAVPAFSQGLDDYGARSMSRNPFAHVQLKPTVTNDRCDLSAQGPEGREHGDGSARTLAGR
Regarding B1, the ratio to parent came out at 0.05.

B2: IRSp53-FLAG (wild type), natively phosphorylated, Q9UQB8-4 S452A; S453A; S454A; T455A (protein)
chain: MSLSRSEEMHRLTENVYKTIMEQFNPSLRNFIAMGKNYEKALAGVTYAAKGYFDALVKMGELASESQGSKELGDVLFQMAEVHRQIQNQLEEMLKSFHNELLTQLEQKVELDSRYLSAALKKYQTEQRSKGDALDKCQAELKKLRKKSQGSKNPQKYSDKELQYIDAISNKQGELENYVSDGYKTALTEERRRFCFLVEKQCAVAKNSAAYHSKGKELLAQKLPLWQQACADPSKIPERAVQLMQQVASNGATLPSALSASKSNLVISDPIPGAKPLPVPPELAPFVGRMSAQESTPIMNGVTGPDGEDYSPWADRKAAQPKSLSPPQSQSKLSDSYSNTLPVRKSVTPKNSYATTENKTLPRSSSMAAGLERNGRMRVKAIFSHAAGDNSTLLSFKEGDLITLLVPEARDGWHYGESEKTKMRGWFPFSYTRVLDSDGSDRLHMSLQQGKAAAAGNLLDKDDLAIPPPDYGAASRAFPAQTASGFKQRPYSVAVPAFSQGLDDYGARSMSSGSGTLVSTV
With B2, the ratio to parent is 0.98.

B3: IRSp53-FLAG (wild type), natively phosphorylated, Q9UQB8-4 S366A (protein)
chain: MSLSRSEEMHRLTENVYKTIMEQFNPSLRNFIAMGKNYEKALAGVTYAAKGYFDALVKMGELASESQGSKELGDVLFQMAEVHRQIQNQLEEMLKSFHNELLTQLEQKVELDSRYLSAALKKYQTEQRSKGDALDKCQAELKKLRKKSQGSKNPQKYSDKELQYIDAISNKQGELENYVSDGYKTALTEERRRFCFLVEKQCAVAKNSAAYHSKGKELLAQKLPLWQQACADPSKIPERAVQLMQQVASNGATLPSALSASKSNLVISDPIPGAKPLPVPPELAPFVGRMSAQESTPIMNGVTGPDGEDYSPWADRKAAQPKSLSPPQSQSKLSDSYSNTLPVRKSVTPKNSYATTENKTLPRSSAMAAGLERNGRMRVKAIFSHAAGDNSTLLSFKEGDLITLLVPEARDGWHYGESEKTKMRGWFPFSYTRVLDSDGSDRLHMSLQQGKSSSTGNLLDKDDLAIPPPDYGAASRAFPAQTASGFKQRPYSVAVPAFSQGLDDYGARSMSSGSGTLVSTV
For B3, the ratio to parent came out at 0.62.

B4: IRSp53-FLAG (wild type), natively phosphorylated, Q9UQB8-4 T360A (protein)
chain: MSLSRSEEMHRLTENVYKTIMEQFNPSLRNFIAMGKNYEKALAGVTYAAKGYFDALVKMGELASESQGSKELGDVLFQMAEVHRQIQNQLEEMLKSFHNELLTQLEQKVELDSRYLSAALKKYQTEQRSKGDALDKCQAELKKLRKKSQGSKNPQKYSDKELQYIDAISNKQGELENYVSDGYKTALTEERRRFCFLVEKQCAVAKNSAAYHSKGKELLAQKLPLWQQACADPSKIPERAVQLMQQVASNGATLPSALSASKSNLVISDPIPGAKPLPVPPELAPFVGRMSAQESTPIMNGVTGPDGEDYSPWADRKAAQPKSLSPPQSQSKLSDSYSNTLPVRKSVTPKNSYATTENKALPRSSSMAAGLERNGRMRVKAIFSHAAGDNSTLLSFKEGDLITLLVPEARDGWHYGESEKTKMRGWFPFSYTRVLDSDGSDRLHMSLQQGKSSSTGNLLDKDDLAIPPPDYGAASRAFPAQTASGFKQRPYSVAVPAFSQGLDDYGARSMSSGSGTLVSTV
For B4, the ratio to parent was 0.12.

B5: IRSp53-FLAG (wild type), natively phosphorylated, Q9UQB8-4 T340A (protein)
chain: MSLSRSEEMHRLTENVYKTIMEQFNPSLRNFIAMGKNYEKALAGVTYAAKGYFDALVKMGELASESQGSKELGDVLFQMAEVHRQIQNQLEEMLKSFHNELLTQLEQKVELDSRYLSAALKKYQTEQRSKGDALDKCQAELKKLRKKSQGSKNPQKYSDKELQYIDAISNKQGELENYVSDGYKTALTEERRRFCFLVEKQCAVAKNSAAYHSKGKELLAQKLPLWQQACADPSKIPERAVQLMQQVASNGATLPSALSASKSNLVISDPIPGAKPLPVPPELAPFVGRMSAQESTPIMNGVTGPDGEDYSPWADRKAAQPKSLSPPQSQSKLSDSYSNALPVRKSVTPKNSYATTENKTLPRSSSMAAGLERNGRMRVKAIFSHAAGDNSTLLSFKEGDLITLLVPEARDGWHYGESEKTKMRGWFPFSYTRVLDSDGSDRLHMSLQQGKSSSTGNLLDKDDLAIPPPDYGAASRAFPAQTASGFKQRPYSVAVPAFSQGLDDYGARSMSSGSGTLVSTV
For the molecule B5, the ratio to parent turned out to be 0.1.
